The assay concerns the target T1, Tfa1 (TFIIE subunit) (S. cerevisiae, UniProt P36100 1-482).
T1 sequence (looked up): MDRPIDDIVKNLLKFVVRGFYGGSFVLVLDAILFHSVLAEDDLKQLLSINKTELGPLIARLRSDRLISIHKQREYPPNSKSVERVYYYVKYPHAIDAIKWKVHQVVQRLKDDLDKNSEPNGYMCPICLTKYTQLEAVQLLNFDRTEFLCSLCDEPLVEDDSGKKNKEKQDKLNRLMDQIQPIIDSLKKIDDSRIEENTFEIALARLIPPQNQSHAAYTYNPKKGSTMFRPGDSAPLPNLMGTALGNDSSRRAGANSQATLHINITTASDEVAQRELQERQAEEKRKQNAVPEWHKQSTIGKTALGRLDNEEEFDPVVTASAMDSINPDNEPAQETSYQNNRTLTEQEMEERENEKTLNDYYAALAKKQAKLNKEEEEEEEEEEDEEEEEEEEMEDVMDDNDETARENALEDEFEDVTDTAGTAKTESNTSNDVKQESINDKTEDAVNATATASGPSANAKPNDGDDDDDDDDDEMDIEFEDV
The experiment in a line: cross-linking.

B1: Ssl1 (natural protein, S. cerevisiae, UniProt Q04673 1-461, looked up)
chain: MAPVVISESEEDEDRVAITRRTKRQVHFDGEGDDRVDQQQQQHSSSHRDRDKHVQRKKKKRLSNRNLQGSNGGYAWEDEIKRSWDLVKVDDEGDMASLVASIVEARKKRTAKKNITPYQRGIIRSLILTLDCSEAMLEKDLRPNRHAMIIQYAIDFVHEFFDQNPISQMGIIIMRNGLAQLVSQVSGNPQDHIDALKSIRKQEPKGNPSLQNALEMARGLLLPVPAHCTREVLIVFGSLSTTDPGDIHQTIDSLVSEKIRVKVLGLSAQVAICKELCKATNYGDESFYKILLDETHLKELFNEAVTPLPVNKINKGFTLVKMGFPTRIFEDTPTFCSCHSKLVYGGYFCPNCHSKVCSLPTVCPCCDLMLILSTHLARSYHHLMPLKTFAEVPTTEKFRSEDCFSCQSRFPILKNHKNGKLLTSSRYRCEDCKQEFCVDCDVFIHEILHNCPGCESKPVIT
On to B1, for which the binding result is given as “binds”.

The values above are taken from publication PMC6078178 (Nature, 2017).
